In patent publication US20050002917A1 (UNIVERSITY OF MASSACHUSETTS, published 2005):

Molecular target: T1, 35S-methionine-luciferase (in vitro translated from the Promega luciferase control plasmid) (UniProt P08659 1-550 = luciferase, 35S-methionine label)
T1 construct: Control protein in the pull-down; also called control protein luciferase
Assay: GST pull-down of 35S-labelled protein on glutathione-Sepharose 4B beads, SDS/PAGE and autoradiography
Procedure: The CaM kinase II domain of mCASK-C cDNA was amplified by PCR and cloned in frame into SmaI of pGEX-2T and transformed into E. coli BL21 cells. […] For pull-down assays, radiolabeled Acheron and luciferase was produced from pET-25b(+)-Acheron and luciferase controlled plasmid (Promega) by using in vitro TNT Quick Coupled Transcription/Translation System (Promega) with ³⁵S-methionine as the sole source of methionine, following the manufacture's instructions. 5 μl of ³⁵S-methionine-Acheron and ³⁵S-methionine-luciferase were incubated with equal amount of GST or GST-mCASK-C (CaM kinase II domain) bound to glutathione-Sepharose 4B beads, respectively, under constant rocking for 45 minutes in 2 ml of NETN binding buffer. ³⁵S-methionine-luciferase and GST were used as the controls in the binding assays. The Sepharose beads were pelleted and washed extensively with the binding buffer and were analyzed by SDS/PAGE and autoradiography.
To further confirm the physical interaction between Acheron and mCASK-C, an in vitro protein binding assay was performed. […] The beads were pelleted and washed extensively and the bound protein complex was resolved by SDS/PAGE and detected by autoradiography.

T1 sequence (P08659 whole entry): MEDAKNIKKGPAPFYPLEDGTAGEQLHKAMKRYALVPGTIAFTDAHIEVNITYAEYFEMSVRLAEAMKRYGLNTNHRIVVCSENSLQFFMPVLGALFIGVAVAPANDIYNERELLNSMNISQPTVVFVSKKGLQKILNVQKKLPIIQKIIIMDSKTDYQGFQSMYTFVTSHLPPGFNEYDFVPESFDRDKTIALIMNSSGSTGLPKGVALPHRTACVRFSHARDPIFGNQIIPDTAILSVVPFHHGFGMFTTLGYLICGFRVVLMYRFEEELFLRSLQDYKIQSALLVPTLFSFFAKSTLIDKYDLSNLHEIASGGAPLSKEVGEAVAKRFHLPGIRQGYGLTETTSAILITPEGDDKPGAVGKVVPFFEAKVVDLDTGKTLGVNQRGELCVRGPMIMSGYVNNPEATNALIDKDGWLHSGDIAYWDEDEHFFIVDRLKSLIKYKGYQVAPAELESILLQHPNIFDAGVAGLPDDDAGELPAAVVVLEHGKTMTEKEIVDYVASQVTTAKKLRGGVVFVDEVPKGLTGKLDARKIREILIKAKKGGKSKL

B1: GST-mCASK-C (CaM kinase II domain from amino acid 1 to 339) (other)
chain: MADDDVLFEDVYELCEVIGKGPFSVVRRCINRETGQQFAVKIVDVAKFTSSPGLSTEDLKREASICHMLKHPHIVELLETYSSDGMLYMVFEFMDGADLCFEIVKRADAGFVYSEAVASHYMRQILEALRYCHDNNIIHRDVKPHCVLLASKENSAPVKLGGFGVAIQLGESGLVAGGRVGTPHFMAPEVVKREPYGKPVDVWGCGVILFILLSGCLPFYGTKERLFEGIIKGKYKMNPRQWSHISESAKDLVRRMLMLDPAERITVYEALNHPWLKERDRYAYKIHLPETVEQLRKFNARRKLKGAVLAAVSSHKFNSFYGDPPEELPDFSEDPTSSG
notes: Expressed in E. coli BL21 and immobilised on glutathione-Sepharose 4B beads; not shown: glutathione S-transferase from vector pGEX-2T
- binding result: no binding
